Measurements published in the supplement of paper PMC12764529.

Assay: folding stability dG unfold (combined trypsin and chymotrypsin); higher = more stable
Procedure: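 Folding stability of de novo designed mini-proteins (<80 aa, no Cys; designed by TrROS, TrMRF, ProteinMPNN and the joint model) was measured by cDNA display proteolysis with trypsin and chymotrypsin. Each protease was used at 11 concentrations in a threefold dilution series plus a no-protease condition. K50 was inferred by Bayesian fitting of sequencing counts, and dG unfold was derived against a sequence-predicted unfolded-state K50 (Tsuboyama et al. method). Sequences shown include variable-length N-terminal GS-type padding (SAGGSAGG...) inside a display construct carrying a PA tag. Rows were kept only if the AF2 dimer inter-PAE was >15, to exclude likely homo-oligomers.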

**Q.** For “SAGGSAMKDFADAPGITDIHPYPDGTISIHFKSSPNARDKIVEALRKEGNIDIKTHPDHGMIRIKVSAGGSA [r15_554_TrROS]”, which “folding stability dG unfold” value is on record?
**A.** < -1 kcal/mol

**Q.** Which “folding stability dG unfold” value does the source give for “SAGGSAPPKIDIDVEPNPEEGYYRVTVEFPDGWPLKIPYPYPDPEDNKRNAKKHVKWILKKHEELLSAGGSA [r15_477_TrROS]” here?
**A.** < -1 kcal/mol

**Q.** Which “folding stability dG unfold” value does the source give for “SAGGSARWMEYQIPFKSPQKREKLKEALMEHPGISEVDWPPNGTINITIPRDNPNRIKKAAKKAGFSAGGSA [r15_834_TrROS]” here?
**A.** < -1 kcal/mol

**Q.** For “SAGGSASSIPPGKILSKKEFEVELPDGKKLKITILEVPGPTLALTEEPGEKKPKTYKVEELKKLLESAGGSA [r15_329_JUSTAS]”, which “folding stability dG unfold” value is on record?
**A.** < -1 kcal/mol

**Q.** For “SAGGSATITLKPGEKVEITVTITVTEYKYDKNGKLVEKKTYKITVKATFTVDEDGNIHVEIKIEIESAGGSA [r2_154_TrROS_Hall]”, which “folding stability dG unfold” value is on record?
**A.** > 6 kcal/mol

**Q.** Which “folding stability dG unfold” value does the source give for “SAGGSEEEKAAKEAAEKELPPAEPKPVLTPDGVVTTYYPVTGAVEVTRYERDAAGVPVKVSSTTDPKSAGGS [r16_243_JUSTAS]” here?
**A.** < -1 kcal/mol

**Q.** Which “folding stability dG unfold” value does the source give for “SAGGSGMAEAEALAAELAAATEKTPLGRTATVSVDTEVRPETGLTLLTVTTTGPGAPTTTPTTLPGRSAGGS [r16_812_JUSTAS]” here?
**A.** < -1 kcal/mol

**Q.** Which “folding stability dG unfold” value does the source give for “SAGGSGMNITVEPVLSPDGTLTVTTTDPATGKTVSTTTTPVPRGPLPPPVRPLLGLDDRNGRPLLLSAGGSA [r2_78_JUSTAS]” here?
**A.** < -1 kcal/mol

**Q.** For “SAGGSLEEIADELAQKPGFDEVKIDVWKPPNGNFMLSVHNKENNRELQIPLPPNWKPVGTYELPVKSAGGSA [r2_74_TrROS]”, which “folding stability dG unfold” value is on record?
**A.** < -1 kcal/mol

**Q.** For “SAGGSMITKETFPGSEVLTYPEKGIRVELDDKNVTVYDIKPLPGKGEPVVLSSKTISKEELEKLIKSSAGGS [r8_174_JUSTAS]”, which “folding stability dG unfold” value is on record?
**A.** < -1 kcal/mol

**Q.** For “SAGGSMTPAELANEIAEKLHEELPPDKSVTITMRFGSGPVTLTIPPDARVDVPEDRPLEVDEISIGSAGGSA [r2_391_JUSTAS]”, which “folding stability dG unfold” value is on record?
**A.** < -1 kcal/mol

**Q.** Which “folding stability dG unfold” value does the source give for “SAGGSMTVKEFTDPEEVEKAVEEMDSNEVAVMPVPERPVERVFTKINDKVIRETINGETVTTEELLSAGGSA [r2_280_JUSTAS]” here?
**A.** < -1 kcal/mol

**Q.** For “SAGGSPVLVPLEREETDPARGTRTRTRAYRLPERDIALVEREEIPFAPDGTPLRRTSEEVVSLEELLESAGG [r13_807_JUSTAS]”, which “folding stability dG unfold” value is on record?
**A.** < -1 kcal/mol

**Q.** Which “folding stability dG unfold” value does the source give for “SAGGSWIEKLPPDYTILLEKPDGTPFTRKIPANASEEEVLALNPPGSSKIELVSLDPSGRAVWRTPGSAGGS [r16_103_JUSTAS]” here?
**A.** < -1 kcal/mol

**Q.** For “SAGGTIKEIFEKNGAEIETNPGQGVVTVEMRKPKRDDNGMPKPKPKGKHEIKVPGGDPEQALDNLLKHSAGG [r13_924_TrROS]”, which “folding stability dG unfold” value is on record?
**A.** < -1 kcal/mol

**Q.** For “SAGGVDLSTLPSNSTVTLTEEKVIPVTKGSPKGSGKGYIETTTTTYTAVPPTGTWLSTTTPSISIIESAGGS [r8_486_JUSTAS]”, which “folding stability dG unfold” value is on record?
**A.** < -1 kcal/mol

**Q.** Which “folding stability dG unfold” value does the source give for “SAGGVSIEKDVTSSDELLAALPPDRPVRIEYTPPDGSSRELEVDPADLSLDIPAGVKYKVRIEVLPPESAGG [r13_461_JUSTAS]” here?
**A.** < -1 kcal/mol

**Q.** With “SAGLYLVKNKETKEIVTVPAENLSDEQLKAGFEVVKLPPVKINITVESAEEAEALAKLFPDKVEVTVNESAG [r14_638_TrROS_Hall]” as the sequence, how does the “folding stability dG unfold” value read?
**A.** < -1 kcal/mol

**Q.** For “SAGMFYVLKTKRPTPSAPPEVLAADPNAEVETEYKLSPDTSEEEIKKIKEELKNKGWKEVKLVPISELKSAG [r5_60_JUSTAS]”, which “folding stability dG unfold” value is on record?
**A.** < -1 kcal/mol

**Q.** With “SAGMSTSSPTAKSTVLETSEEGNTVTKKVKVTTPSKDSSGNSSTTTTTTTITTELKGKPEPKTPEYYAKSAG [r5_70_JUSTAS]” as the sequence, how does the “folding stability dG unfold” value read?
**A.** < -1 kcal/mol

**Q.** With “SAGMTINNTGSVEELKKLPDVVEIEKEGNKYTIKMPGETVEVELNPPKPVPKGPPYTSESEKKKKSEKSSAG [r5_2_JUSTAS]” as the sequence, how does the “folding stability dG unfold” value read?
**A.** < -1 kcal/mol

**Q.** With “SAGMVKEVKSEEEAKKLPPGTLVKLTKPDPTSNKDVTYYRTYPDGSGGILAKSDSSGKVDLTPEIKKILSAG [r5_490_JUSTAS]” as the sequence, how does the “folding stability dG unfold” value read?
**A.** < -1 kcal/mol

**Q.** Which “folding stability dG unfold” value does the source give for “SAGMVLAPSTTETRLPGLRVRTETVVTTELAPDGRPTDVVAPTTTVTVTPPAPPPVFTEESVAAAFELESAG [r14_442_JUSTAS]” here?
**A.** < -1 kcal/mol

**Q.** Which “folding stability dG unfold” value does the source give for “SAGPKINLYRLPNGFLAAKSRSTRPDGKELGTWEKTYLVPGSGKPRTLELPIYDNEKGYVIYAYEEDYSAGG [r19_185_TrMRF]” here?
**A.** < -1 kcal/mol

**Q.** For “SAGPPEPITWKIRNPKNGKKRKIQIWQPDEQMAVQIRDPNDGKPRREIPMPLEEARDLLKSDGFEVEPVSAG [r5_291_TrROS]”, which “folding stability dG unfold” value is on record?
**A.** < -1 kcal/mol

**Q.** With “SAGSELLEKFPNVKVEEYEEEIEFSPEKKEEKEEVDETDGNTITYKKIEVLPEGKAKVKIYTAKLPEVSAGG [r19_125_JUSTAS]” as the sequence, how does the “folding stability dG unfold” value read?
**A.** < -1 kcal/mol

**Q.** With “SAMEISIDPIEDGPVRVTETYKFPGYTRITVKEIPKELLEKGVPLSELPNVPVLEEEIVEIPPPSPELKSAG [r14_856_JUSTAS]” as the sequence, how does the “folding stability dG unfold” value read?
**A.** < -1 kcal/mol

**Q.** Which “folding stability dG unfold” value does the source give for “SAMKPGTVVKVTIIPTEEKLIYNVPEKTVLKSSRTVDATVTKVSTPGSKVTLEIDLPDLPPGSEIELGLSAG [r14_412_JUSTAS]” here?
**A.** < -1 kcal/mol

**Q.** With “SAMTIPVLVEGDIEKLEEREEEIKREVAEELGLPEDLKDLKVEVLEIEPLPDEDGKPTKVRMLVEVHLRSAG [r14_736_TrMRF]” as the sequence, how does the “folding stability dG unfold” value read?
**A.** < -1 kcal/mol

**Q.** With “SAMVKTKDGKELEITRKAKPDELTEEEIKALAEEEVKKLVPEDLEVEVEVEISREPDGTYVVSVPVKKKSAG [r14_389_JUSTAS]” as the sequence, how does the “folding stability dG unfold” value read?
**A.** < -1 kcal/mol

**Q.** With “SANKFSPEEYAEWMIRTARRQVKENRQQGDPEKPKKVTIHFWEEHFPPYRKRIKKEAKEDGLPVEIEPPSAG [r14_908_TrROS]” as the sequence, how does the “folding stability dG unfold” value read?
**A.** < -1 kcal/mol

**Q.** Which “folding stability dG unfold” value does the source give for “SAPPLPPDAVVETESEPVGVDPTENGTLTYYRRTVRVTLPDGSLTLESLVFRDPATGSSTSSVLRETALSAG [r14_293_JUSTAS]” here?
**A.** < -1 kcal/mol

**Q.** Which “folding stability dG unfold” value does the source give for “SASDEDQKKQQEQQKPPIKPPEFPVKLNGKKIEKIRFNPPTDRIWFEWPNGKEIPIDPGMSLEEILKKISAG [r14_59_TrROS]” here?
**A.** < -1 kcal/mol

**Q.** For “SASLPEKLAKELLPEAKEIKILEVKTEPDPNSDRPVTTVKMEAELEGGKKKLTVTLSPGPLKIKVTPEPSAG [r14_397_JUSTAS]”, which “folding stability dG unfold” value is on record?
**A.** < -1 kcal/mol

**Q.** For “SAVKVEEKDDVTIKTYTEPEGGLELVETIDKNGNLIAKTEIKVERKPDAKGNLYVTKVSTKTTVLNPNPISA [r9_262_JUSTAS]”, which “folding stability dG unfold” value is on record?
**A.** < -1 kcal/mol

**Q.** Which “folding stability dG unfold” value does the source give for “SDAIKNQTIEELLDQLPPGDEPGEPKEFTIPGYEIKITDFEPEKDDGGGPRPRRVIEVEDPNGPIEIPIESA [r9_279_TrROS]” here?
**A.** < -1 kcal/mol

**Q.** For “SDDDFADSPEAKKNMENMKPVPPPPTITINVKGDDPEDALDDIREHFPGLDPSNIKSVETTDGTLTITFQSA [r9_723_TrROS]”, which “folding stability dG unfold” value is on record?
**A.** < -1 kcal/mol

**Q.** With “SDPQQLPPELIDNIAKEFPHIKAIEIQPHPPGMVHVDAEYRDDGKEKRVEFQIPNPNGNTHQFEIEIRKPSA [r9_678_TrROS]” as the sequence, how does the “folding stability dG unfold” value read?
**A.** < -1 kcal/mol

**Q.** For “SGDSIHIPPNDLEYAKRIVKDLLDNGRDTIMMNSPEYKKELKEALPGVKVEPVPPMPPPPPSPEDKDKLNSA [r9_639_TrROS]”, which “folding stability dG unfold” value is on record?
**A.** < -1 kcal/mol

**Q.** With “SMPTTVLGSSPSVLPDGSVRYPVAVRRYPEYGVLVEETVTYFPGSGKFVPERRVEIPPDNPAALEWVRRESA [r9_980_JUSTAS]” as the sequence, how does the “folding stability dG unfold” value read?
**A.** < -1 kcal/mol

**Q.** With “SMTLEEALANPEKLAEELAPPPTPAVDEEIDIVDPLTNTTRPARATVLLEPGRRVIVLPEDGAEYPVDPESA [r9_548_JUSTAS]” as the sequence, how does the “folding stability dG unfold” value read?
**A.** < -1 kcal/mol

**Q.** With “SNAKDLARELFEEHGYPIEPESIDPDEDWVTFRFEPPGEPPYDISIDVDPEEGKLKVTIDPQNGYITIPVSA [r9_1119_TrROS]” as the sequence, how does the “folding stability dG unfold” value read?
**A.** < -1 kcal/mol

**Q.** With “SPEGKDEKGVSYPIIVEKPDPKITPEKIKKAIEEAGGKVTKIVRPKKGKLLVVDVEVTDPEKAIEAIKKDSA [r9_1154_TrMRF]” as the sequence, how does the “folding stability dG unfold” value read?
**A.** < -1 kcal/mol

**Q.** Which “folding stability dG unfold” value does the source give for “SSLDDLSPEQAVDQAKFMVRMIRESRDNGKPEQYPKMINMLRRMASSAPPPDRKAVKEVLEEFKIPPEWFSA [r9_182_TrROS]” here?
**A.** < -1 kcal/mol
